The assay has as its target TOR complex 1 (TORC1) in lysate of FLAG-Tor1 expressing yeast cells (TS269), P35169;P38873. The experiment in a line: pull-down (GST) from yeast cell lysate, western blot quantified. Conditions: chain shown with the change, read off a plot, scale: FLAG-Tor1 / GST-Pib2. A general note: A western blot detects proteins with antibodies after separation by electrophoresis.
The mark [1] stands for this setting: without glutamine, parent: est. 1.0.

B1: GST-Pib2(304-635), P53191 V626A (protein)
chain: LPQPASSTNLNFNSNKHKSNVRQISNPKKPLYIPAVLRKVSETNITNDDLLNATLSSYYKKASNLEHGFNPSKSQSASVQNANNLRIISSQSSVQSNTSSILESYKNKISSYLFPNSIPNSDRINLIPTISNRNSARVNPPTKDHWIPDSKRNSCRYCHKPFTLWERKHHCRHCGDIFCQDHLRHWLYLDSQANFIMINELNNGGINGGGTLCKICDDCLVEYENLSTTNHNANTNEDNINVEEGEDDDNDNRKKLRNYYKNRQMNALFRPKKGGSSQEHATVDRDTTTPIQVKSNDEEADNENTGGEQEEGNDVLGSVIGSAPANWNWSSF
Turning to B1, the response is 2.7 (25 mM Gln, parent: est. 6.2) and 0.6 under setting [1].

B2: GST-Pib2(304-635), P53191 A628T (protein)
chain: LPQPASSTNLNFNSNKHKSNVRQISNPKKPLYIPAVLRKVSETNITNDDLLNATLSSYYKKASNLEHGFNPSKSQSASVQNANNLRIISSQSSVQSNTSSILESYKNKISSYLFPNSIPNSDRINLIPTISNRNSARVNPPTKDHWIPDSKRNSCRYCHKPFTLWERKHHCRHCGDIFCQDHLRHWLYLDSQANFIMINELNNGGINGGGTLCKICDDCLVEYENLSTTNHNANTNEDNINVEEGEDDDNDNRKKLRNYYKNRQMNALFRPKKGGSSQEHATVDRDTTTPIQVKSNDEEADNENTGGEQEEGNDVLGSVIGSVPTNWNWSSF
Turning to B2, the response came to 3.5 (25 mM Gln, parent: est. 6.2) and 0.6 under setting [1].

Source of the values: publication PMC8448839.
